# Experiments:
# Assay in all cases: cross-linking
# [1] = target: ^3FLAGPrgH (S. Typhimurium) (UniProt P41783)
# [2] = target: ^3FLAGSpaO (S. Typhimurium) (UniProt P40699)
# [3] = target: OrgB^R21^p^Bpa (OrgB^M45 variant) (S. Typhimurium)
# Chain of UniProt P40699 (P40699 whole entry): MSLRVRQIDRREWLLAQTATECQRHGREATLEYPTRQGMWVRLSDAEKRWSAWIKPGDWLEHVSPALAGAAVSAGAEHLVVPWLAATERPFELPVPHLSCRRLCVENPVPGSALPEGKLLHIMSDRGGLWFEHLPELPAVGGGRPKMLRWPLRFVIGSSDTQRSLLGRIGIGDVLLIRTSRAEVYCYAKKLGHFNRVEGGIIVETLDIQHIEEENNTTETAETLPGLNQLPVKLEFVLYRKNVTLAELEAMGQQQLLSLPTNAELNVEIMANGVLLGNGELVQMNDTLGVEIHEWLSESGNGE
# Chain of UniProt P41783 (P41783 whole entry): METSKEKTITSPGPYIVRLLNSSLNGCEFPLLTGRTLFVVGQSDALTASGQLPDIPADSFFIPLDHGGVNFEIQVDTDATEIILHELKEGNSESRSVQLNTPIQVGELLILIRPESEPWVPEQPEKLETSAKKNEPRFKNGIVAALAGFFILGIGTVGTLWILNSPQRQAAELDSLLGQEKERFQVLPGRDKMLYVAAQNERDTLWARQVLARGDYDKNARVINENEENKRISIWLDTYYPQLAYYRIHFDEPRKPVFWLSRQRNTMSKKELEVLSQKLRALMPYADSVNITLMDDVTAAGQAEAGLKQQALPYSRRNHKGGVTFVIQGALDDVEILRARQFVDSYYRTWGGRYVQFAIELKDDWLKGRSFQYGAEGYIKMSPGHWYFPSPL
substance,measurement,setting,value
OrgA^S70^p^Bpa/L104^p^Bpa (natural protein),stoichiometry N (PrgH per OrgA),[1],2
OrgB^K20^p^Bpa (OrgB^M45 variant) (natural protein),stoichiometry N (OrgB per SpaO),[2],2
OrgB^R21^p^Bpa (OrgB^M45 variant) (natural protein),stoichiometry N,[3],2
